From US20220119534A1 (DRAGONFLY THERAPEUTICS, published 2022) come the findings set out here.

Assay [1] deals with T1, Human CLEC12A-His (recombinant, K244 WT) (human, UniProt Q5QGZ9 65-265).
T1 construct: Made in house (Dragonfly Tx); also called hCLEC12A; hCLEC12A-His; not shown: His tag
T1 sequence: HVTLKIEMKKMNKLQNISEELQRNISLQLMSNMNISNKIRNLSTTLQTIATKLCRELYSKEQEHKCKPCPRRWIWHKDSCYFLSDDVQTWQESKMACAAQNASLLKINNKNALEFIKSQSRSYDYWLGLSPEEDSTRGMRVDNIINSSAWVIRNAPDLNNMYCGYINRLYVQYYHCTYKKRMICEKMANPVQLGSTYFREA
As to the kind of experiment: SPR, two-state fit (ka1); control sample. On the technique in general: Surface plasmon resonance follows binding to a sensor surface in real time, without labels.

Assay [2] addresses T1, Human CLEC12A-His (recombinant, K244 WT). Description: SPR, two-state fit (ka1); control (fully purified protein study).
Description: (§1) Briefly, human Fc specific antibodies were covalently immobilized at a density ˜8000-10000 resonance units (RU) on carboxy methyl dextran matrix of a CM5 biosensor chip via amine-coupling chemistry to create an anti-hFc IgG chip. […] Association was monitored for 300 seconds and dissociation was monitored for 600 seconds. Surfaces were regenerated between cycles with three pulses of 10 mM glycine-HCl, pH 1.7 injected for 20 seconds at 100 μl/min. HBS-EP+ (1×) with 0.1 mg/ml BSA was used as running buffer throughout the experiment. Experiments were performed at physiological temperature of 37° C. To obtain kinetic rate constants and overall binding affinity, double-referenced data were fit to a two-state kinetic model using Biacore 8K Insight Evaluation software (Cytiva).
For assay [3] the target is unchanged. As to the kind of experiment: SPR, two-state fit (kd1); after pH 8, 40C, 2 wks.
Description: as §1
Assay [4] concerns the target T2, Human CLEC12A expressed on cells (Ba/F3-hCLEC12A, PL21, HL60) (human, UniProt Q5QGZ9 1-265).
T2 sequence: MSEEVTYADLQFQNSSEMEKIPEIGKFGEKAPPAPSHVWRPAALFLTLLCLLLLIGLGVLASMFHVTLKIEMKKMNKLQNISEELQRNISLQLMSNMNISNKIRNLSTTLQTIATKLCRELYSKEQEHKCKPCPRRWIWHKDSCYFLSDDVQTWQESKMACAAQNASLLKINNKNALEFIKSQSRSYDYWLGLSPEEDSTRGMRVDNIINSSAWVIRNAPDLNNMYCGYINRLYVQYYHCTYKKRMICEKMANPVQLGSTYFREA
Description: cell-based or functional assay.

For assay [5], the target named is T2, Human CLEC12A expressed on cells …. As to the kind of experiment: flow cytometry on Ba/F3-hCLEC12A cells. For orientation: In flow cytometry, cells or beads pass a laser one at a time.
Assay [6] shares this target. As to the kind of experiment: cell-based or functional assay. This is another data set of the same source.

B1: AB0089 TriNKET (bispecific antibody, human IgG1, kappa)
chain: QLQLQESGPGLVKPSETLSLTCTVSGFSLTNYGLHWIRQPPGKCLEWIGVIWVGGATDYNPSLKSRVTISVDTSKNQFSLKLSSVQAADTAVYYCAKGDYGDTLDYWGQGTLVTVSSGGGGSGGGGSGGGGSGGGGSDIQMTQSPSSLSASVGDRVTITCHASQNINFWLSWYQQKPGKAPKLLIYEASNLHTGVPSRFSGSGSGTDFTLTISSLQPEDFATYYCQQSHSYPLTFGCGTKLEIKGSDKTHTCPPCPAPELLGGPSVFLFPPKPKDTLMISRTPEVTCVVVDVSHEDPEVKFNWYVDGVEVHNAKTKPREEQYNSTYRVVSVLTVLHQDWLNGKEYKCKVSNKALPAPIEKTISKAKGQPREPRVYTLPPCRDELTKNQVSLTCLVKGFYPSDIAVEWESNGQPENNYKTTPPVLVSDGSFTLYSKLTVDKSRWQQGNVFSCSVMHEALHNHYTQKSLSLSPG
heavy: EVQLVESGGGLVKPGGSLRLSCAASGFTFSSYSMNWVRQAPGKGLEWVSSISSSSSYIYYADSVKGRFTISRDNAKNSLYLQMNSLRAEDTAVYYCARGAPIGAAAGWFDPWGQGTLVTVSSASTKGPSVFPLAPSSKSTSGGTAALGCLVKDYFPEPVTVSWNSGALTSGVHTFPAVLQSSGLYSLSSVVTVPSSSLGTQTYICNVNHKPSNTKVDKKVEPKSCDKTHTCPPCPAPELLGGPSVFLFPPKPKDTLMISRTPEVTCVVVDVSHEDPEVKFNWYVDGVEVHNAKTKPREEQYNSTYRVVSVLTVLHQDWLNGKEYKCKVSNKALPAPIEKTISKAKGQPREPQVCTLPPSRDELTENQVSLTCLVKGFYPSDIAVEWESNGQPENNYKTTPPVLDSDGSFFLYSWLTVDKSRWQQGNVFSCSVMHEALHNHYTQKSLSLSPG
light: DIQMTQSPSSVSASVGDRVTITCRASQGISSWLAWYQQKPGKAPKLLIYAASSLQSGVPSRFSGSGSGTDFTLTISSLQPEDFATYYCQQGVSFPRTFGGGTKVEIKRTVAAPSVFIFPPSDEQLKSGTASVVCLLNNFYPREAKVQWKVDNALQSGNSQESVTEQDSKDSTYSLSSTLTLSKADYEKHKVYACEVTHQGLSSPVTKSFNRGEC
notes: F3' format heterodimer of three chains; human IgG1 Fc with EW-RVT and Y349C/S354C mutations; also called AB0089 Lot AB0089-002; CLEC12A TriNKET AB0089
B1: the association rate constant (kon) (usually the second-order rate constant of association) in assay [1] was 8.87e+06 M⁻¹ s⁻¹. In addition, the kon in assay [2] was found to be 1.03e+07 M⁻¹ s⁻¹. In addition, in assay [3], the koff (in general, a measure of how fast the partners let go of each other) turned out to be 0.049 s⁻¹. For the same molecule, in assay [4], the “EC50, KHYG-1-CD16aV cytotoxicity assay, HL-60 cells; after low pH hold” value was 0.11 nM and the “EC50, KHYG-1-CD16aV cytotoxicity assay, HL-60 cells; control sample” value worked out at 0.11 nM. For the same molecule, the midpoint of the response in assay [5], the EC50, lay at 4.02 nM. Moreover, in assay [6], the “EC50, KHYG-1-CD16aV cytotoxicity assay; after pH 5.0, 40C, 2 wks” value worked out at 0.16 nM and the “EC50, KHYG-1-CD16aV cytotoxicity assay; control sample” value is 0.11 nM.
